From paper doi:10.1101/2021.02.07.430167 (bioRxiv, 2021) come the findings set out here.

The target in the assay is T1, human TRADD death domain (199-312) (human, UniProt Q15628 199-312).
T1 sequence: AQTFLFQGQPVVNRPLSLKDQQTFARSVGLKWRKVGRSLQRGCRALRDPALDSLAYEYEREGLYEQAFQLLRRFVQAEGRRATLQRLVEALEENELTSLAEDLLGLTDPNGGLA
Briefly: NMR solution structure.

B1: human p75 neurotrophin receptor death domain (330-427) (domain or fragment)
chain: KGDGGLYSSLPPAKREEVEKLLNGSAGDTWRHLAGELGYQPEHIDSFTHEACPVRALLASWATQDSATLDALLAALRRIQRADLVESLCSESTATSPV
As to B1, the binding result is reported as “binds”.
